Experimental data from patent US20230203158A1 (FLAGSHIP PIONEERING INNOVATIONS VII, published 2023).

Key:
[1] = biological target: IL-10 receptor of HEK-BLUE IL-10 cells (the cells express all the components of the IL-10 signaling pathway); assay: cell-based or functional assay
[2] = biological target: T1, DSG1 stably expressed on HEK-BLUE IL-10 cells (called human DSG1; DSG1 gene NP_034209.2) (human, UniProt Q02413 50-1049); assay: cell-based or functional assay
T1 sequence (looked up): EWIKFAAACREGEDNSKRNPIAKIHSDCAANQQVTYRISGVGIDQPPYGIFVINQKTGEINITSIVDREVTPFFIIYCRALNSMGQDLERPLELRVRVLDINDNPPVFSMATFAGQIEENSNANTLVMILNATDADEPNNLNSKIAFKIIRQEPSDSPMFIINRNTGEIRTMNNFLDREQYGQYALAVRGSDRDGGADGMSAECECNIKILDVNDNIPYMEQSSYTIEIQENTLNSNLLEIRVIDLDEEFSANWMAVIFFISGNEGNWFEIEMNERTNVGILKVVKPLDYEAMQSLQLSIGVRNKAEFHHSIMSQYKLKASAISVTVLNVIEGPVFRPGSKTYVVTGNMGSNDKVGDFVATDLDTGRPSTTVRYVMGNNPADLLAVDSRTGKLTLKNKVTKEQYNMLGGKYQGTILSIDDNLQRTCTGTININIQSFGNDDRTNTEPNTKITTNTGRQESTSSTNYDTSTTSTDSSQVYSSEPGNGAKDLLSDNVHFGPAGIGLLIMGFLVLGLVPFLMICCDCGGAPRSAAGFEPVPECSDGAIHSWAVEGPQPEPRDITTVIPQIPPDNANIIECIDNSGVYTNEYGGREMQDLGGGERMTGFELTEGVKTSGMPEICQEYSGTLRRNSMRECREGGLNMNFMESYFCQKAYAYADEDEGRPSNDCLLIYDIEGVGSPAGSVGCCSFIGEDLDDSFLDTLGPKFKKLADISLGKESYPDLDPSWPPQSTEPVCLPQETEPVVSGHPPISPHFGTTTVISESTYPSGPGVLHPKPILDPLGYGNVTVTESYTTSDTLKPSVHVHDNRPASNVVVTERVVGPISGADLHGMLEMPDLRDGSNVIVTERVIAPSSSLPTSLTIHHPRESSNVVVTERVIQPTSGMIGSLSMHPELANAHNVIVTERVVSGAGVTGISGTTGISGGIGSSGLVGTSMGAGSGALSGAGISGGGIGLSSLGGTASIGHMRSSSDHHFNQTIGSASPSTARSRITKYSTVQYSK

[3] = biological target: T2, recombinant His-tagged murine RAGE protein (ab276858 from Abcam) (murine, UniProt Q62151 23-342, limits assumed); assay: BLI, ANDbody on anti-human IgG Fc biosensors, murine RAGE at 150 nM then murine Notch2 NRR at 150 nM
T2 construct: also called murine RAGE antigen; not shown: His tag
Description: To test simultaneous dual antigen binding of the Notch2/RAGE ANDbodies by BLI, PRO051, PRO052 and PRO053, along with monovalent parental antibody controls were immobilized on anti-human IgG Fc biosensors and dipped into the recombinant His-tagged murine RAGE protein at 150 nM, followed by a second association step into wells containing recombinant murine Notch2 NRR at 150 nM to measure dual antigen binding. The dissociation rate was then measured by dipping the biosensors into buffer.

T2 sequence (Q62151 23-342 limits assumed): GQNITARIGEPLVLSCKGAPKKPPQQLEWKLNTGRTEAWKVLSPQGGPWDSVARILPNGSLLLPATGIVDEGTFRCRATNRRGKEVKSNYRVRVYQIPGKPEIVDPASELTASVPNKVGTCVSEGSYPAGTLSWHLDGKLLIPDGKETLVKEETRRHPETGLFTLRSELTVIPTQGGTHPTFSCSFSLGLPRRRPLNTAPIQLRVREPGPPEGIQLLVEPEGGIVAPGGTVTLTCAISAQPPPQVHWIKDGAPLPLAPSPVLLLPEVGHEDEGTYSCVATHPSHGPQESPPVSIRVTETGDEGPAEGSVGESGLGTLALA

B1: PRO026 (IL-10/DSG1 ANDbody: monomeric IL-10 replacing one Fab of the anti-DSG1 mAb) (other)
heavy: EVQLVESGGGLVQPGRSLRLSCAASGFTFDDYAMHWVRQAPGKGLEWVSGISWNSGSIDYADSVKGRFTISRDNAKNSLYLQMNSLRVEDTALYYCAKDGSRVFGVGGGFDFWGQGTMVTVSSASTKGPSVFPLAPSSKSTSGGTAALGCLVKDYFPEPVTVSWNSGALTSGVHTFPAVLQSSGLYSLSSVVTVPSSSLGTQTYICNVNHKPSNTKVDKKVEPKSCDKTHTCPPCPAPEAAGGPSVFLFPPKPKDTLMISRTPEVTCVVVDVSHEDPEVKFNWYVDGVEVHNAKTKPREEQYNSTYRVVSVLTVLHQDWLNGKEYKCKVSNKALGAPIEKTISKAKGQPREPQVYTLPPSRDELTKNQVKLTCLVKGFYPSDIAVEWESNGQPENNYKTTPPVLDSDGSFFLYSSLTVDKSRWQQGNVFSCSVMHEALHNHYTQKSLSLSPG
light: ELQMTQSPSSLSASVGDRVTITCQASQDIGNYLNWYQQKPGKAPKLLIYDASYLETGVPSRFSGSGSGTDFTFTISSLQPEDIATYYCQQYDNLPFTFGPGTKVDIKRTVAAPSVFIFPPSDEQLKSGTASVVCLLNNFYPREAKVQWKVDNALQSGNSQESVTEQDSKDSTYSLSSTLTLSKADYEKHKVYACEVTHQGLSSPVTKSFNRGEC
chain: SPGQGTQSENSCTHFPGNLPNMLRDLRDAFSRVKTFFQMKDQLDNLLLKESLLEDFKGYLGCQALSEMIQFYLEEVMPQAENQDPDIKAHVNSLGENLKTLRLRLRRCHRFLPCENGGGSGGKSKAVEQVKNAFNKLQEKGIYKAMSEFDIFINYIEAYMTMKIRNGGGGSGGGGSDKTHTCPPCPAPEAAGGPSVFLFPPKPKDTLMISRTPEVTCVVVDVSHEDPEVKFNWYVDGVEVHNAKTKPREEQYNSTYRVVSVLTVLHQDWLNGKEYKCKVSNKALGAPIEKTISKAKGQPREPQVYTLPPSRDELTKNQVSLTCLVSGFYPSDIAVEWESNGQPENNYKTTPPVLDSDGSFKLYSKLTVDKSRWQQGNVFSCSVMHEALHNHYTQKSLSLSPG
EC50 (pM), HEK-BLUE IL-10 signaling assay (SEAP) [1]: 750 pM

B2: PRO027 (IL-10/DSG1 ANDbody: IL-10 dimer replacing one Fab of the anti-DSG1 mAb) (other)
heavy: EVQLVESGGGLVQPGRSLRLSCAASGFTFDDYAMHWVRQAPGKGLEWVSGISWNSGSIDYADSVKGRFTISRDNAKNSLYLQMNSLRVEDTALYYCAKDGSRVFGVGGGFDFWGQGTMVTVSSASTKGPSVFPLAPSSKSTSGGTAALGCLVKDYFPEPVTVSWNSGALTSGVHTFPAVLQSSGLYSLSSVVTVPSSSLGTQTYICNVNHKPSNTKVDKKVEPKSCDKTHTCPPCPAPEAAGGPSVFLFPPKPKDTLMISRTPEVTCVVVDVSHEDPEVKFNWYVDGVEVHNAKTKPREEQYNSTYRVVSVLTVLHQDWLNGKEYKCKVSNKALGAPIEKTISKAKGQPREPQVYTLPPSRDELTKNQVKLTCLVKGFYPSDIAVEWESNGQPENNYKTTPPVLDSDGSFFLYSSLTVDKSRWQQGNVFSCSVMHEALHNHYTQKSLSLSPG
light: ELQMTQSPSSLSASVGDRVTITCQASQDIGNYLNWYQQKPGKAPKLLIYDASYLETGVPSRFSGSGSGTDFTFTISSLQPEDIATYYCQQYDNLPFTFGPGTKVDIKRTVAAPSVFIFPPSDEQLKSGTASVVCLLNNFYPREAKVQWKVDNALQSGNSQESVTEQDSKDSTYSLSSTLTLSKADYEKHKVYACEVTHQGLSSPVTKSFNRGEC
chain: SPGQGTQSENSCTHFPGNLPNMLRDLRDAFSRVKTFFQMKDQLDNLLLKESLLEDFKGYLGCQALSEMIQFYLEEVMPQAENQDPDIKAHVNSLGENLKTLRLRLRRCHRFLPCENKSKAVEQVKNAFNKLQEKGIYKAMSEFDIFINYIEAYMTMKIRNGGGSGGGSPGQGTQSENSCTHFPGNLPNMLRDLRDAFSRVKTFFQMKDQLDNLLLKESLLEDFKGYLGCQALSEMIQFYLEEVMPQAENQDPDIKAHVNSLGENLKTLRLRLRRCHRFLPCENKSKAVEQVKNAFNKLQEKGIYKAMSEFDIFINYIEAYMTMKIRNGGGGSGGGGSDKTHTCPPCPAPEAAGGPSVFLFPPKPKDTLMISRTPEVTCVVVDVSHEDPEVKFNWYVDGVEVHNAKTKPREEQYNSTYRVVSVLTVLHQDWLNGKEYKCKVSNKALGAPIEKTISKAKGQPREPQVYTLPPSRDELTKNQVSLTCLVSGFYPSDIAVEWESNGQPENNYKTTPPVLDSDGSFKLYSKLTVDKSRWQQGNVFSCSVMHEALHNHYTQKSLSLSPG
EC50 (pM), HEK-BLUE IL-10 signaling assay (SEAP) [1]: 19 pM

B3: PRO058 (IL-10/DSG1 ANDbody in which monomeric IL-10 replaces one Fab of the anti-DSG1 mAb; functionally equivalent to PRO026, with a substitution in the Fc … (other)
heavy: EVQLVESGGGLVQPGRSLRLSCAASGFTFDDYAMHWVRQAPGKGLEWVSGISWNSGSIDYADSVKGRFTISRDNAKNSLYLQMNSLRVEDTALYYCAKDGSRVFGVGGGFDFWGQGTMVTVSSASTKGPSVFPLAPSSKSTSGGTAALGCLVKDYFPEPVTVSWNSGALTSGVHTFPAVLQSSGLYSLSSVVTVPSSSLGTQTYICNVNHKPSNTKVDKKVEPKSCDKTHTCPPCPAPEAAGGPSVFLFPPKPKDTLMISRTPEVTCVVVDVSHEDPEVKFNWYVDGVEVHNAKTKPREEQYNSTYRVVSVLTVLHQDWLNGKEYKCKVSNKALGAPIEKTISKAKGQPREPQVYTLPPSRDELTKNQVKLTCLVKGFYPSDIAVEWESNGQPENNYKTTPPVLDSDGSFFLYSSLTVDKSRWQQGNVFSCSVMHEALHNHYTQKSLSLSPG
light: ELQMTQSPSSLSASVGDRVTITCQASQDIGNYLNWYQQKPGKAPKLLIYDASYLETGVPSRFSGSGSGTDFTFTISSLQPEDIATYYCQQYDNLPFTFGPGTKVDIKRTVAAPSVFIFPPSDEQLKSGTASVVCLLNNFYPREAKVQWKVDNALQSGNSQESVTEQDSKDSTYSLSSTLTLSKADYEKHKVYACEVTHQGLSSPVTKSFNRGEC
chain: SPGQGTQSENSCTHFPGNLPNMLRDLRDAFSRVKTFFQMKDQLDNLLLKESLLEDFKGYLGCQALSEMIQFYLEEVMPQAENQDPDIKAHVNSLGENLKTLRLRLRRCHRFLPCENGGGSGGKSKAVEQVKNAFNKLQEKGIYKAMSEFDIFINYIEAYMTMKIRNGGGGSGGGGSDKTHTCPPCPAPEAAGGPSVFLFPPKPKDTLMISRTPEVTCVVVDVSHEDPEVKFNWYVDGVEVHNAKTKPREEQYNSTYRVVSVLTVLHQDWLNGKEYKCKVSNKALGAPIEKTISKAKGQPREPQVYTLPPSRDELTKNQVSLTCLVSGFYPSDIAVEWESNGQPENNYKTTPPVLDSDGSFKLYSKLTVDKSRWQQGNVFSCSVMHEALHNRFTQKSLSLSPG
increase in potency of IL-10 signaling (SEAP) on HEK-BLUE IL-10/DSG1 cells against parental HEK-BLUE IL-10 cells [2]: ~15 fold

B4: PRO052 (Notch2/RAGE ANDbody made by controlled Fab arm exchange of PRO035 K409R and PRO002 F405L) (bispecific antibody)
heavy 1: not shown
light 1: DIQMTQSPSSLSASVGDRVTITCRASQSNRRFLAWYQQKPGKAPKLLIYGASSRASGVPSRFSGSGSGTDFTLTISSLQPEDFATYYCQQYYISPLTFGQGTKVEIKRTVAAPSVFIFPPSDEQLKSGTASVVCLLNNFYPREAKVQWKVDNALQSGNSQESVTEQDSKDSTYSLSSTLTLSKADYEKHKVYACEVTHQGLSSPVTKSFNRGEC
heavy 2: not shown
light 2: DIQMTQSPSSLSASVGDRVTITCRASQDVGIYVNWFQQKPGKAPRRLIYRATNLADGVPSRFSGSRSGTDFTLTISSLQPEDFATYYCLEFDEHPLTFGGGTKVEIKRTVAAPSVFIFPPSDEQLKSGTASVVCLLNNFYPREAKVQWKVDNALQSGNSQESVTEQDSKDSTYSLSSTLTLSKADYEKHKVYACEVTHQGLSSPVTKSFNRGEC
notes: copies: 1 + 1 + 1 + 1
binding result [3]: binds

B5: PRO051 (Notch2/RAGE ANDbody made by controlled Fab arm exchange of PRO034 K409R and PRO002 F405L) (bispecific antibody)
heavy 1: not shown
light 1: not shown
heavy 2: not shown
light 2: DIQMTQSPSSLSASVGDRVTITCRASQDVGIYVNWFQQKPGKAPRRLIYRATNLADGVPSRFSGSRSGTDFTLTISSLQPEDFATYYCLEFDEHPLTFGGGTKVEIKRTVAAPSVFIFPPSDEQLKSGTASVVCLLNNFYPREAKVQWKVDNALQSGNSQESVTEQDSKDSTYSLSSTLTLSKADYEKHKVYACEVTHQGLSSPVTKSFNRGEC
notes: copies: 1 + 1 + 1 + 1
binding result [3]: binds

B6: PRO053 (Notch2/RAGE ANDbody made by controlled Fab arm exchange of PRO036 K409R and PRO002 F405L) (bispecific antibody)
heavy 1: not shown
light 1: DIQMTQSPSSLSASVGDRVTITCRASQSVRSFLAWYQQKPGKAPKLLIYRASIRASGVPSRFSGSGSGTDFTLTISSLQPEDFATYYCQQYYISPWTFGQGTKVEIKRTVAAPSVFIFPPSDEQLKSGTASVVCLLNNFYPREAKVQWKVDNALQSGNSQESVTEQDSKDSTYSLSSTLTLSKADYEKHKVYACEVTHQGLSSPVTKSFNRGEC
heavy 2: not shown
light 2: DIQMTQSPSSLSASVGDRVTITCRASQDVGIYVNWFQQKPGKAPRRLIYRATNLADGVPSRFSGSRSGTDFTLTISSLQPEDFATYYCLEFDEHPLTFGGGTKVEIKRTVAAPSVFIFPPSDEQLKSGTASVVCLLNNFYPREAKVQWKVDNALQSGNSQESVTEQDSKDSTYSLSSTLTLSKADYEKHKVYACEVTHQGLSSPVTKSFNRGEC
notes: copies: 1 + 1 + 1 + 1
binding result [3]: binds
